# Laboratory results taken from patent publication US20170298146A1 (MODIQUEST B V, published 2017).
# Non-standard residues stand in square brackets, D forms with d. No end group written: not given here. Cit = NC(=O)NCCC[C@H](N)C(=O)O
# T1: Histone 2A citrulline-containing peptide 5 (human, also: biotin label)
# T1 peptide: VGRVH[Cit]LLRKGN
# T2: Histone 2A citrulline-containing peptide 6 (human, also: biotin label)
# T2 peptide: VHRLL[Cit]KGNYSE
# T3: msFibα XH (mouse, X at position 15 is citrulline; biotin label)
# T3 peptide: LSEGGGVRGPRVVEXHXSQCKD
# T4: msFibα XG (mouse, X at position 8 is citrulline; biotin label)
# T4 peptide: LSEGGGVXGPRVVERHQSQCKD
# T5: huFibα XH (human, X at position 15 is citrulline; biotin label)
# T5 peptide: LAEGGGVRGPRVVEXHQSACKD
# T6: huFibα XG (human, X at position 8 is citrulline; biotin label)
# T6 peptide: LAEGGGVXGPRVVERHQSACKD
# T7: msFibβ XG (mouse, also: biotin label)
# T7 peptide: EPTDSLDA[Cit]GHRPVDRR
# T8: msVim XS/XL (mouse, also: biotin label)
# T8 construct: also called mouse vimentin peptide
# T8 peptide: YVT[Cit]SSAV[Cit]L[Cit]SSVP
# T9: Histone 2A citrulline-containing peptide 1 (human, also: biotin label)
# T9 construct: also called AAASGXGKQGGK
# T9 peptide: AAASG[Cit]GKQGGK
# T10: Histone 2A citrulline-containing peptide 4 (human, also: biotin label)
# T10 peptide: QFPVG[Cit]VHRLLR
# T11: Histone 2A citrulline-containing peptide 7 (human, also: biotin label)
# T11 peptide: GNYSE[Cit]VGAGAP
# T12: Histone 2A citrulline-containing peptide 8 (human, also: biotin label)
# T12 peptide: AGNAA[Cit]DNKKTR
# T13: Histone 2A citrulline-containing peptide 10 (human, also: biotin label)
# T13 peptide: TRIIP[Cit]HLQLAI
# T14: Histone 2A citrulline-containing peptide 11 (human, also: biotin label)
# T14 peptide: LQLAI[Cit]NDEELN
# T15: Histone 2A citrulline-containing peptide 12 (human, also: biotin label)
# T15 peptide: NKLLG[Cit]VTIAQG
# How the values were obtained:
# [1] = target: T1, Histone 2A citrulline-containing …; test: peptide ELISA, 2 ug/well
# Procedure: (§1) Biotin and citrulline-containing peptides derived from histone 2A were immobilized on NEUTRAVIDIN®-coated 96-well ELISA plates (0.3 μg/well). CFC-1 and CFC-0 were coated at the same concentration and served as positive and negative controls respectively for specific anti-citrulline reactivity and as coating controls. Non-coated wells were used to test for aspecific binding of the antibodies. […] Detection of bound anti-citrulline antibodies was performed by incubating the wells with rabbit-anti-human-HRP (1:2000) for one hour at RT followed by incubation with TMB substrate. The resulting OD (y-axis) is a measure for antibody binding.
# (§2) Ninety-six-well ELISA plates were coated with NEUTRAVIDIN® (0.1 μg/well) by overnight incubation at 4° C. Wells were washed five times with PBS-TWEEN®-20 (PBS-T) and blocked by a one-hour incubation with PBS-T+1% Bovine serum albumin (BSA) at room temperature (RT). After five more washes with PBS-T, wells were incubated for one hour at RT with histone-derived citrulline and biotin-containing peptides (0.3 μg/well). […] Wells were washed five times with PBS-T and incubated with rabbit-anti-human-HRP (1:2000) for one hour at RT followed by five washes with PBS-T and three wash steps with PBS. Wells were incubated for five minutes with TMB substrate before stopping the reaction with 2 M H₂SO₄. Optical density was measured by 450 nm and is a measure for the affinity of the antibodies used.
# [2] = target: T2, Histone 2A citrulline-containing …; test: peptide ELISA, 2 ug/well
# Procedure: as §1, §2
# [3] = target: T16, CFC-1; test: peptide ELISA, 2 ug/well
# T16 construct: Positive control for anti-citrulline reactivity; also called cfc1 XG
# Procedure: as §1, with “fibrinogen and vimentin” for “histone 2A”
# (§3) Biotin-labeled and citrulline-containing fibrinogen and vimentin peptides (Table 5) were also tested for reactivity with the therapeutic antibodies. Peptides were coated on 96-well NEUTRAVIDIN®-ELISA plates.
# [4] = target: T3, msFibα XH; test: peptide ELISA, 2 ug/well
# Procedure: as §1, with “fibrinogen and vimentin” for “histone 2A”
# as §3
# [5] = target: T4, msFibα XG; test: peptide ELISA, 2 ug/well
# Procedure: as §1, with “fibrinogen and vimentin” for “histone 2A”
# as §3
# [6] = target: T5, huFibα XH; test: peptide ELISA, 2 ug/well
# Procedure: as §1, with “fibrinogen and vimentin” for “histone 2A”
# as §3
# [7] = target: T6, huFibα XG; test: peptide ELISA, 2 ug/well
# Procedure: as §1, with “fibrinogen and vimentin” for “histone 2A”
# as §3
# [8] = target: T7, msFibβ XG; test: peptide ELISA, 2 ug/well
# Procedure: as §1, with “fibrinogen and vimentin” for “histone 2A”
# as §3
# [9] = target: T8, msVim XS/XL; test: peptide ELISA, 2 ug/well
# Procedure: as §1, with “fibrinogen and vimentin” for “histone 2A”
# as §3
# [10] = target: T16, CFC-1; test: peptide ELISA, 0.0023 ug/well
# Procedure: as §1, §2
# [11] = target: T9, Histone 2A citrulline-containing …; test: peptide ELISA, 0.0023 ug/well
# Procedure: as §1, §2
# [12] = target: T10, Histone 2A citrulline-containing …; test: peptide ELISA, 0.0023 ug/well
# Procedure: as §1, §2
# [13] = target: T1, Histone 2A citrulline-containing …; test: peptide ELISA, 0.0023 ug/well
# Procedure: as §1, §2
# [14] = target: T11, Histone 2A citrulline-containing …; test: peptide ELISA, 0.0023 ug/well
# Procedure: as §1, §2
# [15] = target: T12, Histone 2A citrulline-containing …; test: peptide ELISA, 0.0023 ug/well
# Procedure: as §1, §2
# [16] = target: T13, Histone 2A citrulline-containing …; test: peptide ELISA, 0.0023 ug/well
# Procedure: as §1, §2
# [17] = target: T14, Histone 2A citrulline-containing …; test: peptide ELISA, 0.0023 ug/well
# Procedure: as §1, §2
# [18] = target: T15, Histone 2A citrulline-containing …; test: peptide ELISA, 0.0023 ug/well
# Procedure: as §1, §2
# [19] = target: T5, huFibα XH; test: peptide ELISA, 0.00064 ug/well
# Procedure: as §1, with “fibrinogen and vimentin” for “histone 2A”
# as §3
# [20] = target: T16, CFC-1; test: peptide ELISA, 0.000128 ug/well
# Procedure: as §1, with “fibrinogen and vimentin” for “histone 2A”
# as §3
# [21] = target: T3, msFibα XH; test: peptide ELISA, 0.000128 ug/well
# Procedure: as §1, with “fibrinogen and vimentin” for “histone 2A”
# as §3
# [22] = target: T4, msFibα XG; test: peptide ELISA, 0.000128 ug/well
# Procedure: as §1, with “fibrinogen and vimentin” for “histone 2A”
# as §3
# [23] = target: T5, huFibα XH; test: peptide ELISA, 0.000128 ug/well
# Procedure: as §1, with “fibrinogen and vimentin” for “histone 2A”
# as §3
# [24] = target: T6, huFibα XG; test: peptide ELISA, 0.000128 ug/well
# Procedure: as §1, with “fibrinogen and vimentin” for “histone 2A”
# as §3
# [25] = target: T7, msFibβ XG; test: peptide ELISA, 0.000128 ug/well
# Procedure: as §1, with “fibrinogen and vimentin” for “histone 2A”
# as §3
# [26] = target: T8, msVim XS/XL; test: peptide ELISA, 0.000128 ug/well
# Procedure: as §1, with “fibrinogen and vimentin” for “histone 2A”
# as §3
binder,measurement,setting,value
"RhmAb2.102 (antibody, human IgG1, lambda, Human IgG1 lambda; also called Rhm2.102) heavy: not shown light: QSVLTQPPSMSAAPGQKVTISCSGSSSNIGNNYVSWYQQVPGTAPKLLIYDDNKRPSGIPGRFSGSKSATSATLGITGLQAGDEADYYCGSWDDNLSVVLFGGGTKLTVLGQPKAAPSVTLFPPSSEELQANKATLVCLISDFYPGAVTVAWKADSSPVKAGVETTTPSKQSNNKYAASSYLSLTPEQWKSHRSYSCQVTHEGSTVEKTVAPTECS",OD,[1],0.111 OD
same,OD,[2],0.752 OD
same,OD,[3],3.97 OD
same,OD,[4],0.091 OD
same,OD,[5],1.9 OD
same,OD,[6],0.116 OD
same,OD,[7],1.51 OD
same,OD,[8],3.15 OD
same,OD,[9],2.77 OD
same,OD,[10],0.916 OD
same,OD,[11],0.3 OD
same,OD,[12],0.078 OD
same,OD,[13],0.063 OD
same,OD,[14],0.064 OD
same,OD,[15],0.06 OD
same,OD,[16],0.068 OD
same,OD,[17],0.057 OD
same,OD,[18],0.059 OD
same,OD,[19],0.124 OD
same,OD,[20],0.288 OD
same,OD,[21],0.089 OD
same,OD,[22],0.119 OD
same,OD,[23],0.12 OD
same,OD,[24],0.115 OD
same,OD,[25],0.118 OD
same,OD,[26],0.133 OD
